Assay: yeast display, Sf9 membrane polyspecificity reagent, FACS + sequencing; frameworks hold sequencing errors
In short: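 In a synthetic yeast display library (Saccharomyces cerevisiae BJ5465), nanobody expression was induced with galactose for 36–48 hours. FACS gates were set low and high (top ~1%) using anti-HA fluorescence for expression and streptavidin fluorescence for binding of the Sf9 membrane reagent. Each polyreactivity label is drawn from the gate of origin.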

Row | Sequence | polyreactivity (PSR sort gate)
1 | QVQLVESGGGLVQAGGSLRLSCAASGRTFKYYAMGWYRQAPGKERELVAAISSGSSTYYADSVKGRFTISRDNAKNTVYLQMNSLKPEDTAVYYCNAVYKLSYLLSGTSEYYTYDYWGQGTQVTVSS | high polyreactivity
2 | QDQLVESGGGLVQAGGSLRLSCAASVSTFYVYAMGWYRQAPGKERELVAAITRGGSTYYADSVKGRFTISRDNAKNTVYLQMNSLKPEDTAGYYCAADYGSRWGYDYCGQGTQVTVSS | low polyreactivity
3 | QVQLVESGGGLFQAGGSLRLSCAASGSIFRAYAMVWYRQAPGKERELVAAITRGGSTNYADSVKGRFTISRDNAKNTVYLQMNSLKPEDTAVYYCAAQNYWYYPRRFDYWGQGTQVTVSS | high polyreactivity
4 | QVQLVESGGGLVQAGGSLRLSCAASGSTFHYYAMGWYRQAPGKERELVATITWRGGFTYYADSVKGRFTISRDNAKNTVYLQMNSLKPEDTAGYYCTDYSVRRYRDPRLYYWGQGTQVTVSS | high polyreactivity
5 | QVQLVESGGGLVQAGGSLRLSCAASGSTFFIYAMGWYRQAPGKERELVATITKRGGRTYYADSVKGRFTISRDNAKNTVYLQMNSLKPEDTAVYYCAKDLWAVYLPGYDYWGQGTQVTVSS | low polyreactivity
6 | QVQRVESGGGLLQAGRSLRLSCAASGTIFYHYAMGWYRQAPGKERELVAAMTRSGGSTYYADSVKGRFTISRDNAKNTVYLQMNSLNPEDTAVYYCAKDPDSYNFLTSNWYDYWGQGTQVTVCS | low polyreactivity
7 | QVQLVESGGVLVQAGGSLRLSCAASGNIFYAYAMGWYRQAPGKERELVAAISWSGDSTYYADSVKGRFTISRDNAKNTVNLQMNSLKPEETAVEYCAADSYRFYSGYYYWGQGTQVTVSS | low polyreactivity
8 | QVQLVESGGGLVQAGGSLRLSCAASGFIFELYAMGWYRQAPGKERDLVAVISYDGGSTYYADSVKGRFTISRDNAKNTVYLQMNSLKPEDTAVYYCNTYAGLVSPSDLYDYWGQGTQVTVSS | low polyreactivity
9 | QVQLVESGGGLVQAGGSLRLSCAASGFTFDGYAMGWYRQAPGKERELVAAIRRSGASTYYADSVKGRFTISRDNAKNTVYLHMNSLKPEDTAVYYCNATRNYEPRYSSFTLRGYYWGQGTQVTVSS | low polyreactivity
10 | QVQLVESGGVLVQAGGSLRLSCAASGSTFSTNAMGWYRQAPGKEREFVAAITWSGDSTDYADSVKGRFTISRDNAKNTVYLQMNSLKPEDTAVYYCAADFPGFYYVYPGDYWGQGTQVTVSS | low polyreactivity
11 | QGQLVESGGGVVQAGGSLRLSCAASGRIFYRNAMGWYRQAPGKVRELVAAINWSGGSTYYADSVKGRFTISRDNAKNTVYLQMNSLKPEDTAVYYCAARFVRYPSKYDYWGQGTQVTVSS | high polyreactivity
12 | QVQLVESGGGLVQAGGSLRLSCAASGFTFLKNAMGWYRQAPGKERELVAAITGSGGSTYYADSVKGRFTISRDNAKNTVYLQMNSLKPEDTAVYYCNVRRGLRAYEYWGQGTQVTVSS | high polyreactivity
13 | QVQLVESAGGLVQAGGSLRLSCAASGSIIYYNAMGWYRQAPGKERELVAAITGSGGSTYYADSVKGRFTISRDNAKNTVYLQMNSLKPEDTAVYYCAADYSLYGWWFRNDYWGQGTQVTVSS | low polyreactivity
14 | QVQLVESGGGLVHAGGSLRLSCAASGSTLKYYAMGWYRQAPGKERELVAAITSGSSTYYADSVKGRFTISRDNAKNTVYLQMNSLKPEDTAVYYCAADYYTGYGRYYSTRFYYWGQGTQVTVSS | high polyreactivity
15 | QVQLVESCGGLVQAGGSLRLSCAASGGIFGYYAMGWYRQAPGKEREFVAAITLSGGRSYYADSVKGRFTISRDNAKNTVYLQMNSLKPEDTAVYYCNAYPYYLVRNMDSWGQGTQVTVSS | high polyreactivity
16 | QDQLVESVGGLVQAGGSLRLSCAASGFTFYNYAMGWYRQAPGKERELVAAISWNGGSTYYADSVKGRFTISRDNAKNTVYLQMNSLKPEDTAVYYCNADISQRTRGYYYVWWSRMDYWGQGTQVTVSS | low polyreactivity
17 | QVQLVESGGGLVQAGGSLRLSCAASGNTYTSYAMGWYRQAPGKDRELVAAISASGSSTYYADSVKGRFTISRDNAKNTVYLQMNSLKPEDTAVFYCARQWYWRPGYYMGQGYEYWGQGTQVTVSS | low polyreactivity
18 | QVQLVESGGGLVQAGGSLRLSCAASGSIFSGYTMGWYRQAPGKDRELVAGISYRGGSTYYADSVKGRFTISRDNAKNTVYLQMNSLKPEDTAVYYCAALYYRRGSLNYEYWGQGTQVTVSS | high polyreactivity
19 | QVQLVESGGGLVQAGGSLRLSCAASGRIFGGNAMGWFRQAPGKERELVAASTTRGGSTSADSVKGRFTISRDNAKNTVYLHMNSLKPEATAVYYCAVARSSHGGPRYLVRTYGYWGQATQVTVSS | low polyreactivity
20 | QVQLVESGGGLVQAGGSLRLSCAASGRTFGYYAMGWYRQAPGKERELVAAITRTGGSTHYADSVKGRFTISRDNAKNTVYLQKNSLKPEDTAVYYCARDYRYTIPYDYWGQGTQVTVSS | low polyreactivity

Row | Sequence | polyreactivity (PSR sort gate)
21 | QVQLVESGGGLVQAGGSLRLSCAASGIIFADYAMGWSRQAPGKERELVAAISSGDSTYYADSVKGRFTMSLDNAKNTVYLQMNSLKPEDTAVYYSAARLFRNKYRIAKMNYWGQGTQVTVSS | high polyreactivity
22 | QVQLVESGGGLVQAGGSLRLSCAASGSIFYSNAMGWYRQAPGKEREFVAAISAGGGSTYYADSVKGRFTISRDNAKNTVYLQMNSLKPEDTAVYYCAATDEYYIQVWFPYDYWGQGTQVTVSW | low polyreactivity
23 | QVQLVESRGGLVQAGGSLRLSCAASGSTLSQNAMGWYRQAPGKEREFDADISGSGDSTYYADSVKGRFTISRDNAKNTFYLQMNSLKPEDTAVYYCATPSPHVGLKWEYDYWGQGTQVTVSS | low polyreactivity
24 | QVQLVESGGGLVQAGGSLRLSCAASGFTFTKYAMGWYIQATGKERELVAAISRSGSSTYYADSVKGRFTISRDNAKNTVYLQMNSLKPEDTAVYYCAADNGYGDYYYWGQGTQVTVSS | high polyreactivity
25 | QVQLVESGGGLVQAGGSLRLSCAASGITFHRYAMGWYRQAPGKERELVAAISGSGGNTYYADSVKGRFTISRDNAKNTVYLQMNILKPEDTAVYYCAAYPSWYVYPKYYYWGQGTQVTVSS | high polyreactivity
26 | QVQLVESGGGLVQAGGSLRLSCAASGSIFFDGNAMGWYRQAPGKERELVAAINSGGTTKYADSVKGRFTISRDNAKNTVYLQMNSLKPEDTAVYYCNAREGVFRYPVAHDYWGQGTQVTVSS | low polyreactivity
27 | QFQLVESVRGLFQAGGSLRLSCAASGSIFHPYGMGWYREDPVKERELVAAISSSGGDTYYADSVKGRFTISRDNAKNTVYLQMNSLKPEDTAVYYCATDHLDSYSVPGIGKHDYWGQGTQVTVSS | low polyreactivity
28 | QVQLVESGGGLVQAGGSLRLSCAASGLTLVTIGMGWYSQAPAKERELVAAIDSTGGRTYYADSVKGRFTISRDNAKKTVYLQMTSLKPEDTAVSYCNRRWYARAAYWGQGTQVTVSS | high polyreactivity
29 | QVQIVESGGGLVQAGGSLRLSCAASGTFSFYAMGWYRQAPGKERELVATIRSGGRTYYADSVKGRFTISRDNAKNTVYLQMNSLKPEDTAVYYCAKTGFLGLRQYGYWGQGTQVTVSS | high polyreactivity
30 | QVQLVESGGGLVQAGGSLRLSCAACGITFLSNAMGWYRQAPGKERELVAAITTSGGTTYADSVKGRFTISRDNAKNTVYLQMNSLKPEDTAVYYCNAVGYTPRKPSKFDYWGQGTQVTVSS | low polyreactivity
31 | QVQLVESGGGLVQAGGSLRLSCAATRSIFSLYTMGWYRQAPGKERELVAVISSAGRTYYADSVKGRFTISRDNGKNTVYLQMNSLKPEDTAVYYCARLTGQRTQTRSDYWGQGTQVTVSS | high polyreactivity
32 | QVQLVESGGGLVQAGGSLRLSCAASGSIFSLYAMGWYRQAPGKERELVAAITWTGGSTYYADSVKGRFTISRDNAKNTVYLQMNSLKPEDTAVYYCDARRVVYRYYWYSAYDYWGRGTQVTVSS | high polyreactivity
33 | QVQLVESGGGLVQAGGSLRLSCAASGRTFPGNAMGGYRQAPGKERELVAAISSRGGSTYYADSVKGRFTISRDNAKNTVNLQMKSLKPEDTAVYYCNAASNYRVRRTYHGDYWGLGTQVTVSS | high polyreactivity
34 | QVQLVESGGGLVQAGGSLRLSCAASGRIFGYNAMGWYRQAPGTERELVAAISSSGGGTYYADSVKGRFTISRDNAKNTVYLQMNSLKPEDTAVYYCAAYTRPGRYDYWGQGTQVTVSS | high polyreactivity
35 | QVQLVESGGGLVQAGGSLRLSCAASGFIFAWYAMGWYRQAPGKERELVAAISYSGGSTYYADSVKGRFTISRDNAKNTVYLEMNSLKPEDTAVYYCNKVSRGGSYGHAFDYWGQGTQVTVSS | high polyreactivity
36 | QVQLVESGGGLVQAGGSLRLSCAASGSIFPSYAMGWYRQAPGKERELVAAISKSGGRTKYADSVKGRFTISRDNAKNTVYLQMNSLKPEDTAVYYCAAYAYFHRREGYWGQGTQVTVSS | high polyreactivity
37 | QVQLVESGGGLVQAGGSLRLSCAASGLIFDINAMGWYRQAPGKERELVAAITWRGGSTYYADSVKGRFTISRDNAKNTVYLQMNSLKPEDTAVYYCAAGWSYRNGVGVGDFYYGYDYWGQGTQVTVSS | high polyreactivity
38 | QVQLVESGGGLVQAGGSLRLSCAASGSTFAEYVMGWYRQAPGKERELVAAISSGTSTYYADSVKGRFTISRDNAKNTVYLQMNSLKPEDTAVYYCNDDLYHTWYKPEYDYWGQGTQVTVSS | low polyreactivity
39 | QVQLVESGGGLVQAGGSLRLSCAASANIFKPNAMGWYRQAPGKERELVAAISDSGGNTYYADSVKGRFTISRDNAKNTVYLQMNSLKPEDTAVYYCARRYYWYSGRYDYWGQGTQVTVSS | high polyreactivity
40 | QVQLVESGGGLVQAGGSLRLSCAASGITFGFNAMGWYRQAPGKERELVAAIRWGSGRTYYADSVKGRFTISRDNAKNTVYLQMNSLKPEDTAVYYCAAAPTTGKRPGYYYWGQGTQVTVSS | high polyreactivity
